B1: variant 5-32 (Fc fusion)
VHH: EVQLVESGGGLVQPGGSLRLSCAASGFTPDNYAMGWFRQAPGKEREFVAALGWSGVTTYHYYADSVKGRFTISADNSKNTAYLQMNSLKPEDTAVYYCASDESDAANWGQGTLVTVSS
B2: variant 5-42 (Fc fusion)
VHH: EVQLVESGGGLVQPGGSLRLSCAASGFTPDDYAMGWFRQAPGKEREFVASIGYSGRSNSYNYYADSVKGRFTISADNSKNTAYLQMNSLKPEDTAVYYCAIAHGSSTYNWGQGTLVTVSS
B3: variant 5-47 (Fc fusion)
VHH: EVQLVESGGGLVQPGGSLRLSCAASGFTFGSYDMGWFRQAPGKEREFVTAINWSGARTAYADSVKGRFTISADNSKNTAYLQMNSLKPEDTAVYYCAARSVYSYEYNWGQGTLVTVSS
B4: variant 5-49 (Fc fusion)
VHH: EVQLVESGGGLVQPGGSLRLSCAASGRTSTVNGMGWFRQAPGKEREFVASISQSGAATAYADSVKGRFTISADNSKNTAYLQMNSLKPEDTAVYYCAADRTYSYSSTGYYWGQGTLVTVSS
B5: variant 5-50 (Fc fusion)
VHH: EVQLVESGGGLVQPGGSLRLSCAASGFSLDYYGMGWFRQAPGKEREFVAAITSGGTPHYADSVKGRFTISADNSKNTAYLQMNSLKPEDTAVYYCASAYNPGIGYDWGQGTLVTVSS
B6: variant 5-52 (Fc fusion)
VHH: EVQLVESGGGLVQPGGSLRLSCAASGEKFSDHWMGWFRQAPGKEREFVATITFSGARTAYADSVKGRFTISADNSKNTAYLQMNSLKPEDTAVYYCAALIKPSSTDRIFEEWGQGTLVTVSS
B7: variant 5-55 (Fc fusion)
VHH: EVQLVESGGGLVQPGGSLRLSCAASGIDVNRNAMGWFRQAPGKEREFVAAITWSGGWRYYADSVKGRFTISADNSKNTAYLQMNSLKPEDTAVYYCATTFGDAGIPDQYDFGWGQGTLVTVSS
B8: variant 5-56 (Fc fusion)
VHH: EVQLVESGGGLVQPGGSLRLSCAASGRTFSSNMGWFRQAPGKEREFVARIFGGDRTLYADSVKGRFTISADNSKNTAYLQMNSLKPEDTAVYYCADINGDWGQGTLVTVSS
B9: variant 5-59 (Fc fusion)
VHH: EVQLVESGGGLVQPGGSLRLSCAASGLTFSLYRMCWFRQAPGKEREEVSCISNIDGSTYYADSVKGRFTISADNSKNTAYLQMNSLKPEDTAVYYCAADLLGDSDYEPSSGFGWGQGTLVTVSS
B10: variant 5-60 (Fc fusion)
VHH: EVQLVESGGGLVQPGGSLRLSCAASGRSFSSHRMGWFRQAPGKEREFVAAIMWSGSHRNYADSVKGRFTISADNSKNTAYLQMNSLKPEDTAVYYCAAIAYEEGVYRWDWGQGTLVTVSS
B11: variant 5-63 (Fc fusion)
VHH: EVQLVESGGGLVQPGGSLRLSCAASGFSLDYYDMGWFRQAPGKEREFVAALGWSGGSTDYADSVKGRFTISADNSKNTAYLQMNSLKPEDTAVYYCAAGNGGRYGIVERWGQGTLVTVSS
B12: variant 5-64 (Fc fusion)
VHH: EVQLVESGGGLVQPGGSLRLSCAASGTSISNRVMGWFRQAPGKERELVARIYTGGDTLYADSVKGRFTISADNSKNTAYLQMNSLKPEDTAVYYCAARKIYRSLSYYGDYDWGQGTLVTVSS
B13: variant 5-65 (Fc fusion)
VHH: EVQLVESGGGLVQPGGSLRLSCAASGNIDRLYAMGWFRQAPGKEREGVAAIDSDGSTDYADSVKGRFTISADNSKNTAYLQMNSLKPEDTAVYYCAALIDYGLGFPIEWGQGTLVTVSS
B14: variant 5-67 (Fc fusion)
VHH: EVQLVESGGGLVQPGGSLRLSCAASGFNVNDYAMGWFRQAPGKEREFVAGITSSVGVTNYADSVKGRFTISADNSKNTAYLQMNSLKPEDTAVYYCAADIFFVNWGRGTLVTVSS
B15: variant 5-68 (Fc fusion)
VHH: EVQLVESGGGLVQPGGSLRLSCAASGFTFDHYTMGWFRQAPGKEREFVAAISGSENVTSYADSVKGRFTISADNSKNTAYLQMNSLKPEDTAVYYCAAEPYIPVRTMRHMTFLTWGQGTLVTVSS
B16: variant 6-1 (Fc fusion)
VHH: EVQLVESGGGLVQPGGSLRLSCAASGRTFGNYNMGWFRQAPGKEREFVATINSLGGTSYADSVKGRFTISADNSKNTAYLQMNSLKPEDTAVYYCARVDYYMDVWGQGTLVTVSS
B17: variant 6-2 (Fc fusion)
VHH: EVQLVESGGGLVQPGGSLRLSCAASGFTMSSSWMGWFRQAPGKEREFVTVISGVGTSYADSVKGRFTISADNSKNTAYLQMNSLKPEDTAVYYCARGPDSSGYGFDYWGQGTLVTVSS
B18: variant 6-3 (Fc fusion)
VHH: EVQLVESGGGLVQPGGSLRLSCAASGFTFSPSWMGWFRQAPGKEREFVATINEYGGRNYADSVKGRFTISADNSKNTAYLQMNSLKPEDTAVYYCARVDRDFDYWGQGTLVTVSS
notes: VHH-Fc
B19: variant 6-30 (Fc fusion)
VHH: EVQLVESGGGLVQPGGSLRLSCAASGFAFGDSWMGWFRQAPGKEREFVATINWSGVTAYADSVKGRFTISADNSKNTAYLQMNSLKPEDTAVYYCARADGYFDYWGQGTLVTVSS
B20: variant 6-77 (Fc fusion)
VHH: EVQLVESGGGLVQPGGSLRLSCAASGFTFDRSWMGWFRQAPGKEREFVAAVTEGGTTSYADSVKGRFTISADNSKNTAYLQMNSLKPEDTAVYYCARADYDFDYWGQGTLVTVSS
B21: variant 6-4 (Fc fusion)
VHH: EVQLVESGGGLVQPGGSLRLSCAASGFTRDYYTMGWFRQAPGKEREFVAAISRSGSLTSYADSVKGRFTISADNSKNTAYLQMNSLKPEDTAVYYCANLAYYDSSGYYDYWGQGTLVTVSS
B22: variant 6-5 (Fc fusion)
VHH: EVQLVESGGGLVQPGGSLRLSCAASGRTFTMGWFRQAPGKEREFVASTNSAGSTNYADSVNGRFTISADNSKNTAYLQMNSLKPEDTAVYYCTTVDQYFDYWGQGTLVTVSS
B23: variant 6-6 (Fc fusion)
VHH: EVQLVESGGGLVQPGGSLRLSCAASGTTLDYYAMGWFRQAPGKERELVAAISWSGGSTAYADSVKGRFTISADNSKNTAYLQMNSLKPEDTAVYYCAREDYYDSSGYSWGQGTLVTVSS
B24: variant 6-9 (Fc fusion)
VHH: EVQLVESGGGLVQPGGSLRLSCAASGFTFDYYAMGWFRQAPGKEREFVSAIDSEGRTSYADSVKGRFTISADNSKNTAYLQMNSLKPEDTAVYYCARWGPFDIWGQGTLVTVSS
B25: variant 6-10 (Fc fusion)
VHH: EVQLVESGGGLVQPGGSLRLSCAASGSIASIHAMGWFRQAPGKEREFVAAISRSGGFGSYADSVKGRFTISADNSKNTAYLQMNSLKPEDTAVYYCARDDKYYDSSGYPAYFQHWGQGTLVTVSS
B26: variant 6-12 (Fc fusion)
VHH: EVQLVESGGGLVQPGGSLRLSCAASGSTYTTYSMGWFRQAPGKEREFVAAISGSENVTSYADSVKGRFTISADNSKNTAYLQMNSLKPEDTAVYYCARVDDYMDVWGQGTLVTVSS
B27: variant 6-13 (Fc fusion)
VHH: EVQLVESGGGLVQPGGSLRLSCAASGLTFNDYAMGWFRQAPGKEREFVAHIPRSTYSPYYADSVKGRFTISADNSKNTAYLQMNSLKPEDTAVYYCAFLVGPQGVDHGAFDVWGQGTLVTVSS
B28: variant 6-14 (Fc fusion)
VHH: EVQLVESGGGLVQPGGSLRLSCAASGITFRFKAMGWFRQAPGKEREFVAAVSWDGRNTYYADSVKGRFTISADNSKNTAYLQMNSLKPEDTAVYYCASDYYYMDVWGQGTLVTVSS
B29: variant 6-16 (Fc fusion)
VHH: EVQLVESGGGLVQPGGSLRLSCAASGFTFDDAAMGWFRQAPGKEREFVAHISWSGGSTYYADSVKGRFTISADNSKNTAYLQMNSLKPEDTAVYYCATFGATVTATNDAFDIWGQGTLVTVSS
B30: variant 6-17 (Fc fusion)
VHH: EVQLVESGGGLVQPGGSLRLSCAASGNTGSTGYMGWFRQAPGKEREMVAGVINDGSTVYADSVKGRFTISADNSKNTAYLQMNSLKPEDTAVYYCARLATSHQDGTGYLFDYWGQGTLVTVSS
B31: variant 6-18 (Fc fusion)
VHH: EVQLVESGGGLVQPGGSLRLSCAASGLTFRNYAMGWFRQAPGKEREFIAGMMWSGGTTTYADSVKGRFTISADNSKNTAYLQMNSLKPEDTAVYYCAREGYYYDSSGYLNYFDYWGQGTLVTVSS
B32: variant 6-19 (Fc fusion)
VHH: EVQLVESGGGLVQPGGSLRLSCAASGSILSIAVMGWFRQAPGKEREFVAAISPSAVTTYYADSVKGRFTISADNSKNTAYLQMNSLKPEDTAVYYCAIGYYDSSGYFDYWGQGTLVTVSS
B33: variant 6-22 (Fc fusion)
VHH: EVQLVESGGGLVQPGGSLRLSCAASGRTFSEVVMGWFRQAPGKEREFVATIHSSGSTSYADSVKGRFTISADNSKNTAYLQMNSLKPEDTAVYYCVRVTSDYSMDSWGQGTLVTVSS
B34: variant 6-23 (Fc fusion)
VHH: EVQLVESGGGLVQPGGSLRLSCAASGSIFSMNTMGWFRQAPGKEREFVALINRSGGGINYADSVKGRFTISADNSKNTAYLQMNSLKPEDTAVYYCVRLSSGYYDFDYWGQGTLVTVSS

target: T1, Acro SARS-CoV-2 (COVID-19) S1 protein (SARS-CoV-2, UniProt P0DTC2 16-685); assay: SPR
T1 construct: also called SARS-CoV-2 S1

| Binder | Kd [nM] |
| --- | --- |
| B1 | 22.4 |
| B2 | 116 |
| B3 | 27.7 |
| B4 | 74.5 |
| B5 | 60.5 |
| B6 | 99 |
| B7 | 63.5 |
| B8 | 54.3 |
| B9 | 113 |
| B10 | 29.4 |
| B11 | 10.5 |
| B12 | 346 |
| B13 | 353 |
| B14 | 22.1 |
| B15 | 111 |
| B16 | 35.8 |
| B17 | 29.9 |

| Binder | Kd [nM] |
| --- | --- |
| B18 | 12.4 |
| B19 | 11.8 |
| B20 | 24.6 |
| B21 | 45.8 |
| B22 | 24.9 |
| B23 | 6.4 |
| B24 | 18.5 |
| B25 | 29.7 |
| B26 | 50.2 |
| B27 | 25.3 |
| B28 | 135 |
| B29 | 52.1 |
| B30 | 65.2 |
| B31 | 30.1 |
| B32 | 71 |
| B33 | 25.6 |
| B34 | 59.3 |

Reference: patent US20210355194A1 (TWIST BIOSCIENCE, published 2021)
